Source: US20210032312A1 (Janssen / Centocor, published 2021)

B1: P283DR9P1364_B1 (designed binder)
chain: LPAPKNLVVSRVTEDSARLSWTAPDAAFDSFYITYPEIPLGGEAIVLTVPGSERSYDLTGLKPGTEYFVVIYGVKGGLLSSPLSAIFTT
notes: FN3 domain
B2: P283DR9P1364_H6 (designed binder)
chain: LPAPKNLVVSRVTEDSARLSWTAPDAAFDSFIIAYPETPVRGEAIVLTVPGSERSYDLTGLKPGTEYFVIIIGVKGGQESFPLSAIFTT
notes: FN3 domain
B3: P283FR9P1366_A5 (designed binder)
chain: LPAPKNLVVSRVTEDSARLSWTAPDAAFDSFWIAYPEWPTRGEAIVLTVPGSERSYDLTGLKPGTEYFVVIYGVKGGSPSPPLSAIFTT
notes: FN3 domain
B4: P283DR9P1364_E9 (designed binder)
chain: LPAPKNLVVSRVTEDSARLSWTAPDAAFDSFDIAYPEWPTKGEAIVLTVPGSERSYDLTGLKPGTEYFVVINGVKGGWRSFPLSAIFTT
notes: FN3 domain
B5: P283DR9P1364_D8 (designed binder)
chain: LPAPKNLVVSRVTEDSARLSWTAPDAAFDSFQIAYPETPIQGEAIVLTVPGSERSYDLTGLKPGTEYFVIIHGVKGGITSFPLSAIFTT
notes: FN3 domain
B6: P283DR9P1364_C10 (designed binder)
chain: LPAPKNLVVSRVTEDSARLSWTAPDAAFDSFQIAYPEWPKDGEAIVLTVPGSERSYDLTGLKPGTEYAVFIWGVKGGVYSNPLSAIFTT
notes: FN3 domain
B7: P283DR9P1364_G10 (designed binder)
chain: LPAPKNLVVSRVTEDSARLSWTAPDAAFDSFSIAYPEWPGSGEAIVLTVPGSERSYDLTGLKPGTEYFVVIFGVKGGSQSWPLSAIFTT
notes: FN3 domain
B8: P283DR9P1364_E3 (designed binder)
chain: LPAPKNLVVSRVTEDSARLSWTAPDAAFDSFGIAYPELPIGGEAIVLTVPGSERSYDLTGLKPGTEYFVIIRGVKGGTLSPPLSAIFTT
notes: FN3 domain
B9: P283FR9P1366_A9 (designed binder)
chain: LPAPKNLVVSRVTEDSARLSWTAPDAAFDSFNIAYGEYPGPGEAIVLTVPGSERSYDLTGLKPGTEYWVPIWGVKGGELSEPLSAIFTT
notes: FN3 domain
B10: P283DR9P1364_E7 (designed binder)
chain: LPAPKNLVVSRVTEDSARLSWTAPDAAFDSFNIAYPEWPVRGEAIVLTVPGSERSYDLTGLKPGTEYWVIIYGVKGGDRSNPLSAIFTT
notes: FN3 domain
B11: P283DR9P1364_G9 (designed binder)
chain: LPAPKNLVVSRVTEDSARLSWTAPDAAFDSFGIWYPEWPVGGEAIVLTVPGSERSYDLTGLKPGTEYWVNISGVKGGEYSFPLSAIFTT
notes: FN3 domain
B12: P283DR9P1364_E5 (designed binder)
chain: LPAPKNLVVSRVTEDSARLSWTAPDAAFDSFWISYPEWPVPGEAIVLTVPGSERSYDLTGLKPGTEYWVIIQGVKGGKLSWPLSAIFTT
notes: FN3 domain
B13: P283DR9P1364_B4 (designed binder)
chain: LPAPKNLVVSRVTEDSARLSWTAPDAAFDSFAISYPEWPPPGEAIVLTVPGSERSYDLTGLKPGTEYWVIILGVKGGDQSWPLSAIFTT
notes: FN3 domain
B14: P283DR9P1364_H11 (designed binder)
chain: LPAPKNLVVSRVTEDSARLSWTAPDAAFDSFDIAYPELPLGGEAIVLTVPGSERSYDLTGLKPGTEYFVIIWGVKGGDRSEPLSAIFTT
notes: FN3 domain
B15: P283DR9P1364_F2 (designed binder)
chain: LPAPKNLVVSRVTEDSARLSWTAPDAAFDSFWIAYPEWPVPGEAIVLTVPGSERSYDLTGLKPGTEYFVIIQGVKGGFGSFPLSAIFTT
notes: FN3 domain
B16: P283DR9P1364_D11 (designed binder)
chain: LPAPKNLVVSRVTEDSARLSWTAPDAAFDSFDIAYPEWPPKGEAIVLTVPGSERSYDLTGLKPGTEYFVVIYGVKGGIHSAPLSAIFTT
notes: FN3 domain
B17: P283FR9P1366_A1 (designed binder)
chain: LPAPKNLVVSRVTEDSARLSWTAPDAAFDSFWITYPEWPVPGEAIVLTVPGSERSYDLTGLKPGTEYAVFIWGVKGGDASEPLSAIFTT
notes: FN3 domain
B18: P283DR9P1364_D9 (designed binder)
chain: LPAPKNLVVSRVTEDSARLSWTAPDAAFDSFGISYPEWPPLGEAIVLTVPGSERSYDLTGLKPGTEYWVIIFGVKGGERSWPLSAIFTT
notes: FN3 domain
B19: P283DR9P1364_B11 (designed binder)
chain: LPAPKNLVVSRVTEDSARLSWTAPDAAFDSFYISYPEWEQLGEAIVLTVPGSERSYDLTGLKPGTEYFVVIYGVKGGALSAPLSAIFTT
notes: FN3 domain
B20: P283DR9P1364_H1 (designed binder)
chain: LPAPKNLVVSRVTEDSARLSWTAPDAAFDSFQISYPEWPVHGEAIVLTVPGSERSYDLTGLKPGTEYWVIIWGVKGGRQSWPLSAIFTT
notes: FN3 domain

Key:
human CD8A-Fc (in house) = target: T1, human CD8A-Fc (in house) (human, UniProt P01732 22-182, limits assumed); test: SPR (ProteOn), captured hCD8A-Fc
T1 construct: captured by goat anti-human Fc on the ProteOn chip; also called hCD8A-Fc; recombinant human CD8 alpha; not shown: linker/tag and Fc of human IgG1
T1 sequence (P01732 22-182 limits assumed): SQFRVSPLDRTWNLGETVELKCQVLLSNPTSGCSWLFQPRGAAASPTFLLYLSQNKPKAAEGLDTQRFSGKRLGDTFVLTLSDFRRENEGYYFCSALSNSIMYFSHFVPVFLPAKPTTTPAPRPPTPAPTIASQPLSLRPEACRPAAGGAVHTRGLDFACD

[1] = target: T2, cynomolgus monkey CD8 alpha on primary cynomolgus CD8+ T cells (cynomolgus monkey, UniProt P01732 23-235 (human entry)); test: flow cytometry, cyno CD8+ T cells
T2 construct: also called Cyno CD8alpha; cyno CD8A
T2 sequence (P01732 other isoform, or with tags, fused parts or gaps limits assumed): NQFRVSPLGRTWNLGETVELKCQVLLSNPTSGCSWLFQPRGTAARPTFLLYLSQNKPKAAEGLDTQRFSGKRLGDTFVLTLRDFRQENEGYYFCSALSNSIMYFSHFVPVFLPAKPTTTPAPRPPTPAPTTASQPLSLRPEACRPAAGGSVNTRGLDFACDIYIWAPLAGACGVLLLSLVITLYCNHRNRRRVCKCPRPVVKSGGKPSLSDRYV
Experimental: (§1) Binding of the 190 ELISA hits to human and cynomologous monkey primary CD8 T cells was assessed by flow cytometry. The FN3 domain molecules were diluted to 2 μM and 0.2 μM in PBS and incubated with human or cynomologous monkey CD8+ T cells in 96-well format. After 1 hour at 4 C, the cells were washed once with PBS and then resuspended with an anti-FN3 domain antibody (PAB25) solution. Following this incubation, the cells were washed twice with PBS and a PE conjugated secondary antibody and a viability dye were added. Finally, cells were washed and resuspended in PBS for flow cytometric analysis using a BD Canto Instrument. Cells were gating on live cells and median fluorescence intensity of the bound Centyrins (PE channel) was calculated using Cytobank software.

[2] = target: T3, human CD8 alpha (CD8A) on primary human CD8+ T cells (human, UniProt P01732 22-235); test: flow cytometry, human CD8+ T cells
T3 construct: whole, on cells; also called hCD8A
T3 sequence (P01732 22-235): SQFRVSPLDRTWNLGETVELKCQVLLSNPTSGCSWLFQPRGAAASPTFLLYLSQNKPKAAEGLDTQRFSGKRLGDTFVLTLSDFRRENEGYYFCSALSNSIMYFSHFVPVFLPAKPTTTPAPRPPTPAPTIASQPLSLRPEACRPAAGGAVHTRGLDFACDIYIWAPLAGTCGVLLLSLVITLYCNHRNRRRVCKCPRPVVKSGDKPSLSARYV
Experimental: as §1

| Binder | koff (human CD8A-Fc (in house)) [s⁻¹] | Cyno T-cell Binding 0.2 uM (MFI) [1] [MFI] | Cyno T-cell Binding 2 uM (MFI) [1] [MFI] | Human T-cell Binding 0.2 uM (MFI) [2] [MFI] | Human T-cell Binding 2 uM (MFI) [2] [MFI] |
| --- | --- | --- | --- | --- | --- |
| B1 | 0.00156 | 746 | 8620 | 666 | 1480 |
| B2 | 0.0023 | 418 | 6000 | 268 | 2620 |
| B3 | 0.000585 | 10900 | 67800 | 3600 | 27600 |
| B4 | 0.0019 | 2100 | 19700 | 548 | 4300 |
| B5 | 0.00661 | 365 | 2480 | 244 | 656 |
| B6 | 0.00129 | 2710 | 34200 | 649 | 4940 |
| B7 | 0.00253 | 769 | 10900 | 409 | 6290 |
| B8 | 0.00253 | 887 | 9130 | 317 | 1280 |
| B9 | 0.00394 | 580 | 8810 | 252 | 1720 |
| B10 | 0.00243 | 2240 | 28700 | 442 | 5390 |
| B11 | 0.00779 | 2800 | 47100 | 401 | 9890 |
| B12 | 0.000825 | 5090 | 55700 | 1270 | 17600 |
| B13 | 0.000109 | 20200 | 96500 | 6060 | 45500 |
| B14 | 0.000964 | 9460 | 60600 | 834 | 11500 |
| B15 | 0.000161 | 16900 | 91500 | 6250 | 39200 |
| B16 | 0.000514 | 16200 | 70400 | 4220 | 32300 |
| B17 | 0.00226 | 1650 | 39400 | 516 | 8780 |
| B18 | 0.00043 | 20000 | 88300 | 5240 | 42300 |
| B19 | 0.0013 | 1590 | 22900 | 451 | 4260 |
| B20 | 0.000613 | 10600 | 54000 | 3030 | 29200 |
